The values that follow come from patent publication US6998124 (GlaxoSmithKline, dated 2006).

The target of test [1] is T1, human erythropoietin receptor on the cell surface (human, UniProt P19235 25-508).
T1 construct: whole, on cells; also called wild type EpoR on UT7-Epo cells; cell surface erythropoietin receptors
T1 sequence (looked up): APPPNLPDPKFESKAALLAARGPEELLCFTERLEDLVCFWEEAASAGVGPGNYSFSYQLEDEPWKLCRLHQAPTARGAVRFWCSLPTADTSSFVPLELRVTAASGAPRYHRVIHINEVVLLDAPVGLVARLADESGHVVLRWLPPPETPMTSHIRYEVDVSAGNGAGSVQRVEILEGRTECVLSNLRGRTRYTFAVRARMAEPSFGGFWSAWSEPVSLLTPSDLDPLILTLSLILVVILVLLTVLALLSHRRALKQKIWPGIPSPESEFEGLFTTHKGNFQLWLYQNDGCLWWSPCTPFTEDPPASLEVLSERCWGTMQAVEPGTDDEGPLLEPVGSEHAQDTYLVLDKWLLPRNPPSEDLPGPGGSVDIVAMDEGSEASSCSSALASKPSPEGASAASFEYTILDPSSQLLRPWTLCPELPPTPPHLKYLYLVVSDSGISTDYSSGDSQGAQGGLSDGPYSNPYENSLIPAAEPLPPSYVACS
Briefly: competition with 1 nM 125I-labeled Epo for binding to UT7-Epo cells, 5 hrs at 4 C, cell-bound radioactivity counted; blocked ligand: Epo. Here is the method:
Following 5 hrs incubation at 4° C., the cells were spun through horse serum, frozen, and the pellets clipped off and radioactivity counted. […] Hematocrit was measured following a single i.v. dose of Hz3G9 at 0.1, 0.5, 1 and 5 mg/kg into cynomolgus macaques.

Test [2] concerns the target T2, soluble dimeric erythropoietin receptor (EpoRFc) (human, UniProt P19235 25-250).
T2 construct: also called Epo-Rec-Fc; not shown: Fc part
T2 sequence (looked up): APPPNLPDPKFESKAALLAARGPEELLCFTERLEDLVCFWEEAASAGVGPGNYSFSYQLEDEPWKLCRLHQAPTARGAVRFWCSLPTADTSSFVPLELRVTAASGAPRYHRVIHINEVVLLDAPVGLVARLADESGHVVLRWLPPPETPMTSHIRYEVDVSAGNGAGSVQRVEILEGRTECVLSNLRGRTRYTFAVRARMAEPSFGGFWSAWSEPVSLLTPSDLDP
Briefly: BIAcore, calculated from kass and kdiss; soluble dimeric EpoRFc. Here is the method:
(§1) EpoR or EpoRFc diluted in HBS buffer at 0.25–6 ug/ml was then injected for 120 s followed by buffer flow for 240 s and regeneration of the sensor chip surface with an injection of 15 ul 0.1 M phosphoric acid. BIAcore software was used for association and dissociation-phase analysis.

Test [3] addresses T2, soluble dimeric erythropoietin receptor …. Briefly: BIAcore, mAb captured on rabbit anti-mouse Fc surface, EpoRFc injected at 0.25-6 ug/ml; soluble dimeric EpoRFc. How it is done:
as §1

B1: murine monoclonal antibody 3G9 (antibody, V domains shown)
VH: QVQLQQPGAELVKSGASVKLSCKASGSTFTSYWMHWVKQRPGRGLEWIGRIDPNSGGTKDNEKFKSKATLTVDKPSSTAYMQLSSLTSEDSAVYYCARETYYDSSFAYWGQGTLVTVSA
VL: DIVMTQSQKFMSTSVGDRVSVTCKASQNVGTNVAWYQQKPGQSPKALIYSASYRYSGVPDRFTGSGSGTDFTLTISNVQSEDLAEYFCQQYNSYPLTFGAGTKLELKR
modifications: amino terminus of the heavy chain blocked with pyroglutamic acid
notes: Mouse hybridoma antibody; also called 3G9 mAb; Mab 3G9
B1: the “IC50 (read off the curve)” value in test [1] was around 1 ng/mL. For the same molecule, the Kd in test [2] was 0.6 nM. Also, in test [3], the off-rate constant (koff) was determined as 0.0019 s⁻¹ and the on-rate (kon) was found to be 3e+06 M⁻¹ s⁻¹.
